{"source": "patent US20110039771A1", "about": "(University of California, published 2011)", "binders": {"B1": {"name": "biotinylated-HN (peptide)", "peptide": "MAPRGFSCLLLLTSEIDLPVKRRA", "modifications": "also: biotinylated, site not given here", "notes": "Probe in solution in the dot blot, detected with streptavidin-HRP; also called biotinylated humanin"}}, "test_in_all_cases": "dot blot: peptide on nitrocellulose, probed with biotinylated-HN and streptavidin-HRP", "key": {"[1]": {"molecular_target": "T1, SHLP1 (human)", "T1 construct": "Dotted on nitrocellulose; also called small humanin-like peptide 1; SHLP1 (M)", "T1 peptide": "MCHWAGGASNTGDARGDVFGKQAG", "method": "(§1) FIG. 12 HN binds to SHLP2 and SHLP4. 2, 5 and 10 nmol of IGF-1 (negative control), HN, SHLP1, 2 or 4 were dotted on to nitrocellulose membrane and left to dry. The membrane was blocked, incubated with biotinylated-HN and streptavidin-HRP and exposed by autoradiography.\n(§2) To test a dimerization hypothesis, we performed a dot-blot using biotinylated-HN. Two, 5 or 10 nmol IGF-I (negative control), HN (positive control) or SHLP peptide were dotted on to nitrocellulose membrane, and their ability to bind to biotinylated-HN was assessed immunologically. […] Specific interactions that occur may be determined using, e.g., dot blots with biotinylated SHLPs, and/or antibodies against specific SHLPs."}, "[2]": {"molecular_target": "T2, SHLP2 (human)", "T2 construct": "Dotted on nitrocellulose; also called small humanin-like peptide 2; SHLP2 (M)", "T2 peptide": "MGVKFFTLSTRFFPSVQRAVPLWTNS", "method": "as §1, §2"}, "[3]": {"molecular_target": "T3, humanin (HN) (human)", "T3 construct": "Unlabelled HN dotted on nitrocellulose as positive control; also called Humanin (M)", "T3 peptide": "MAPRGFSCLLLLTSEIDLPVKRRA", "method": "as §1, §2"}, "[4]": {"molecular_target": "T4, SHLP4 (human)", "T4 construct": "Dotted on nitrocellulose; also called small humanin-like peptide 4; SHLP4 (M)", "T4 peptide": "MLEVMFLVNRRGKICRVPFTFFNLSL", "method": "as §1, §2"}}, "note": "Where no end group is shown, it is not given here."}
{"binder": "B1", "values": [{"measurement": "binding result", "setting": "[1]", "value": "no binding (tested: 2, 5 or 10 nmol dotted)"}, {"measurement": "binding result", "setting": "[2]", "value": "binds"}, {"measurement": "binding result", "setting": "[3]", "value": "binds"}, {"measurement": "binding result", "setting": "[4]", "value": "binds"}]}
